Assay results published in patent US7427498B2, “Composition, methods and reagents for the synthesis of a soluble form of human PHEX” (Universite De Montreal, priority 1999, dated 2008).
“Also recorded” adds a separate entry of the source.

T1: PTHrP107-139, P12272
T1 chain: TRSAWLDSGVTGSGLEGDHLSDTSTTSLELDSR

B1: secPHEX, soluble secreted form of recombinant human PHEX (construct 3, pCDNA3/RSV/PHEX-MutE) (protein)
chain: MEAETGSSVETGKKANRGTRIALVVFVLTVIAQQTTSQGLLSLQAKQEYCLKPECIEAAAAILSKVNLSVDPCDNFFRFACDGWISNNPIPEDMPSYGVYPWLRHNVDLKLKELLEKSISRRRDTEAIQKAKILYSSCMNEKAIEKADAKPLLHILRHSPFRWPVLESNIGPEGVWSERKFSLLQTLATFRGQYSNSVFIRLYVSPDDKASNEHILKLDQATLSLAVREDYLDNSTEAKSYRDALYKFMVDTAVLLGANSSRAEHDMKSVLRLEIKIAEIMIPHENRTSEAMYNKMNISELSAMIPQFDWLGYIKKVIDTRLYPHLKDISPSENVVVRVPQYFKDLFRILGSERKKTIANYLVWRMVYSRIPNLSRRFQYRWLEFSRVIQGTTTLLPQWDKCVNFIESALPYVVGKMFVDVYFQEDKKEMMEELVEGVRWAFIDMLEKENEWMDAGTKRKAKEKARAVLAKVGYPEFIMNDTHVNEDLKAIKFSEADYFGNVLQTRKYLAQSDFFWLRKAVPKTEWFTNPTTVNAFYSASTNQIRFPAGELQKPFFWGTEYPRSLSYGAIGVIVGHEFTHGFDNNGRKYDKNGNLDPWWSTESEEKFKEKTKCMINQYSNYYWKKAGLNVKGKRTLGENIADNGGLREAFRAYRKWINDRRQGLEEPLLPGITFTNNQLFFLSYAHVRCNSYRPEAAREQVQIGAHSPPQFRVNGAISNSEEFQKAFNCPPNSTMNRGMDSCRLW

Key:
secPHEX = assay: Inhibition of secPHEX enzymatic activity (cleavage of PTHrP107-139, RP-HPLC); assay type: biochemical, human; settings: 0.001 M inhibitor added to the reaction mixture
Experimental: (§1) FIG. 6: Enzymatic assay for secPHEX. Purified secPHEX (2 μg) was incubated in the presence of 10 μg PTHrP107-139 and the reaction mixture analyzed by RP-HPLC.
(§2) An aliquot of purified PHEX containing 2 μg of protein was incubated for 15 min at 37° C. in a volume of 200 μl of 50 mM MES (2-(N-Morpholinoethanesulfonic acid, pH 6.5, containing 150 mM NaCl and 10 μg of PTHrP107-139 as a substrate. After the incubation period, the hydrolysis was stopped by the addition of trifluoroacetic acid to a final concentration of 0.1%. Identification of peptide products was performed by reverse phase high performance liquid chromatography (RP-HPLC) on a C18 μBondapak analytical column (Waters) with a UV detector set at 214 nm. Peptides were resolved with a linear gradient of 5% B to 85% B in 45 min at the flow rate of 0.4 ml/min [mobile phase A=0.1% trifluoroacetic acid; mobile phase B=80% acetonitrile (CH3CN), 0.1% trifluoroacetic acid].

PTHrP107-139, P12272 = molecular target: T1, PTHrP107-139, P12272
PTHrP107-139 = assay: Assay for the activity of PHEX: digestion of PTHrP107-139 by purified secPHEX, RP-HPLC; assay type: biochemical
Experimental: as §1, §2

Molecule	inhibition of secPHEX enzymatic activity (degradation of PTHrP107-139) (secPHEX)	PTHrP107-139 peak on the chromatogram (RP-HPLC) after 15 min of incubation (PTHrP107-139, P12272)	PTHrP107-139 peak on the chromatogram, % of its original surface (PTHrP107-139; 2 μg secPHEX, 10 μg PTHrP107-139, 15 min at 37° C., 50 mM MES pH 6.5, 150 mM NaCl)	enzymatic activity in other buffers (PTHrP107-139; Acetate, HEPES and Tris buffers covering a pH range from 4.0 to 8.5)	enzymatic activity on PTHrP107-139 (qualitative) (PTHrP107-139; purified secPHEX, conditions of Methods)
O=C(O)CN(CCN(CC(=O)O)CC(=O)O)CC(=O)O [EDTA]	totally inhibited; also recorded: fully inhibited	–	–	–	–
c1cnc2c(c1)ccc1cccnc12 [O-phenantrolin]	fully inhibited	–	–	–	–
B1	–	PTHrP107-139 peak on the chromatogram was decreased to 15% of its original surface after only 15 min of incubation	15%	Activity was also observed	active; also recorded: can degrade this peptide
